Results published in paper PMC10256812.

Biological target: T1, FLAG-tagged androgen receptor (AR), P10275
T1 chain: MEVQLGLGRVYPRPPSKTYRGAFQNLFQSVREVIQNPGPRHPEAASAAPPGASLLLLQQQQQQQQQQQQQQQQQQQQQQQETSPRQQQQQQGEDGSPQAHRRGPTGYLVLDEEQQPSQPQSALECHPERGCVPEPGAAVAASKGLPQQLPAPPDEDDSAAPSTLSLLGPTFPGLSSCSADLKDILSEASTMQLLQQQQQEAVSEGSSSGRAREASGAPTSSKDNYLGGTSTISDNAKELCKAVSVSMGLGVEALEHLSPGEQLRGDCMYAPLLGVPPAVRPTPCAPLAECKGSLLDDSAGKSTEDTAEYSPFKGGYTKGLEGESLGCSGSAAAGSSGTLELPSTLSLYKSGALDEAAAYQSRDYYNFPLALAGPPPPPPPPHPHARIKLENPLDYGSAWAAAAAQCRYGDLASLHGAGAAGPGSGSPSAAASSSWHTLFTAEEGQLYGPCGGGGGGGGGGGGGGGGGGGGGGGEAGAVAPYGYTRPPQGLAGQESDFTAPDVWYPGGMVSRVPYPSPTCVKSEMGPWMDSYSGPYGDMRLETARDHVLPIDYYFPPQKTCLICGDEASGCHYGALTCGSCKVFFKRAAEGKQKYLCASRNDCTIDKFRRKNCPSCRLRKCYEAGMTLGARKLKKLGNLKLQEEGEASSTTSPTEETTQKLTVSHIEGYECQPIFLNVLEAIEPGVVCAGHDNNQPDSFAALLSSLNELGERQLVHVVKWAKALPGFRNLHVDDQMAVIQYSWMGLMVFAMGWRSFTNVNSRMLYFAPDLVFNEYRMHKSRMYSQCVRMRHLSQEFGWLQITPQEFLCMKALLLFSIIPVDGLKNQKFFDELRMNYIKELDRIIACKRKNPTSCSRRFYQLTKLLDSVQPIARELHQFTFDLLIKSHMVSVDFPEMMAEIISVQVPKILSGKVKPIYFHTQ
Assay: co-immunoprecipitation (Ni-NTA pull-down of His-SREBF1, immunoblot with FLAG antibody), band quantification
Settings: chain shown with the change, HEK293T cells

B1: His-tagged SREBF1 (wild type), expressed in HEK293T cells, P36956 Y673A; Y951A (protein)
chain: MDEPPFSEAALEQALGEPCDLDAALLTDIEDMLQLINNQDSDFPGLFDPPYAGSGAGGTDPASPDTSSPGSLSPPPATLSSSLEAFLSGPQAAPSPLSPPQPAPTPLKMYPSMPAFSPGPGIKEESVPLSILQTPTPQPLPGALLPQSFPAPAPPQFSSTPVLGYPSPPGGFSTGSPPGNTQQPLPGLPLASPPGVPPVSLHTQVQSVVPQQLLTVTAAPTAAPVTTTVTSQIQQVPVLLQPHFIKADSLLLTAMKTDGATVKAAGLSPLVSGTTVQTGPLPTLVSGGTILATVPLVVDAEKLPINRLAAGSKAPASAQSRGEKRTAHNAIEKRYRSSINDKIIELKDLVVGTEAKLNKSAVLRKAIDYIRFLQHSNQKLKQENLSLRTAVHKSKSLKDLVSACGSGGNTDVLMEGVKTEVEDTLTPPPSDAGSPFQSSPLSLGSRGSGSGGSGSDSEPDSPVFEDSKAKPEQRPSLHSRGMLDRSRLALCTLVFLCLSCNPLASLLGARGLPSPSDTTSVYHSPGRNVLGTESRDGPGWAQWLLPPVVWLLNGLLVLVSLVLLFVYGEPVTRPHSGPAVYFWRHRKQADLDLARGDFAQAAQQLWLALRALGRPLPTSHLDLACSLLWNLIRHLLQRLWVGRWLAGRAGGLQQDCALRVDASASARDAALVAHKLHQLHTMGKHTGGHLTATNLALSALNLAECAGDAVSVATLAEIYVAAALRVKTSLPRALHFLTRFFLSSARQACLAQSGSVPPAMQWLCHPVGHRFFVDGDWSVLSTPWESLYSLAGNPVDPLAQVTQLFREHLLERALNCVTQPNPSPGSADGDKEFSDALGYLQLLNSCSDAAGAPAYSFSISSSMATTTGVDPVAKWWASLTAVVIHWLRRDEEAAERLCPLVEHLPRVLQESERPLPRAALHSFKAARALLGCAKAESGPASLTICEKASGALQDSLATTPASSSIDKAVQLFLCDLLLVVRTSLWRQQQPPAPAPAAQGTSSRPQASALELRGFQRDLSSLRRLAQSFRPAMRRVFLHEATARLMAGASPTRTHQLLDRSLRRRAGPGGKGGAVAELEPRPTRREHAEALLLASCYLPPGFLSAPGQRVGMLAEAARTLEKLGDRRLLHDCQQMLMRLGGGTTVTSS
response (+ DHT, parent: 0.9): 3.7 | response (without DHT, parent: 0.1): 0.3
